Test results published in patent publication US20230226096A1 (Orna Therapeutics, Inc., priority 2020, published 2023).

B1: Simian pegivirus (nucleic acid, listed as Pegivirus sp.)
DNA: GGGGAATCTCACCCCCCGTCCGGTTCCGGAAGAATCGGAAACCGACACCCTGACCAATCATTCTTGATCATAGAGTGGATGTTAGTGAAAGCCAGACGAAAGCCGGCGGATGGGTGGTGACAGGGTTGGTAGGTCGTAAATCCCGGCCACCCTGGTACCCGGTATAAGTTGGGCGGAAGCTGACTGAAGCTCCGTGCTCTTTTCTGTGCGTTCTTGGTGCACGGTCCACAGGTGACGCCTATACCGGTGTGAATAATAGGCCGACTCGAGCGGAGTCGTTAAACTGAGAACCTCCATACGGATGGCAACTTGGCTTGCGTACGGGGACGCCGCTAAAGTCACAGTGGGTTAAGTCCGGCGGGTTGACAACCCCAGCAAGGCGAGGGGGTCCTATTGTTGGACTCTGCCAGTTCCCGGTGGAGGTAGGCATGGGGTGGCCCAGCTCCGCGGCGCGCTACAGCCGGGGTAGCCCAAAATCCGAAAGGTGAGGGCGGGCCACATGTCCGAAATTTAGTCAAGC
B2: Pegivirus I (nucleic acid)
DNA: AGAATGGTCTAAGTGGTTGCCACCGTGGTCCGAAGGGGAGGAGGACCTACGCTGCCAGGGTTGGCAGGTCGTAAATCCCGGGTGTAGGAGATCCCTCCTTGTTAGGACTGCTGGTAGCTGGGGGGTCGGTGACCCCCTGGGCAACCGCCAAACCCGGACGACCGGGTGGCGGCTCCATGTTGGCACGGTCCACAGGTGTGAACCCTACCGGTGTGAATAAGGGTTGGTGGTTGCGGTCCACCTTAAACGTAGTATGCATTGGGCTTGGTAAAACACCGCTCGTAGTACGGAACGCCGCCTTTAAAGACACAGTAGGCGTAGCCGGCGGGTTGACAATCCATACGGGGGGTGGGGTGTGGTCATGGATCTGTCCACACCACCTTCATGCGGCCCTCTAAGCAAGCCATACCGGGGGGAGGCGCGCGGCACCGCACTGCCGGGCAAGGGGAAGAACCTTCGGGTGACCCCCCCCCAACCACCGTCCGATCAATGCTAATGTTGCGTTTAGGCGTGACACCGGCACA
modifications: Pegivirus I
B3: Pestivirus giraffe-1 (nucleic acid, listed as Pestivirus sp.)
DNA: GTATACGAGTTTAGCTCAATCCTCGTATACAATATTGGGCGTCACCAAATATAGATTTGGCATAGGCAACACCCCGATGCGAAGGCCGAAAAGGGCTAACCATGCCCTTAGTAGGACTAGCAAAAAATCGGGGACTAGCCCAGGTGGTGAGCTTCCTGGATGACCGAAGCCCTGAGTACAGGGCAGTCGTCAACAGTTCAACACGCAGAATAGGTTTGCGTCTTGATATGCTGTGTGGACGAGGGCATGCCCACGGTACATCTTAACCTATCCGGGGGTCGGATAGGCGAAAGTCCAGTATTGGACTGGGAGTACAGCCTGATAGGGTGTTGCAGAGACCCATCTGATAGGCTAGTATAAAAAACTCTGCTGTACATGGCAC
B4: Porcine pestivirus isolate Bungowannah (nucleic acid, listed as Pestivirus sp.)
DNA: TACGCGGGGTATAACGACAGTAGTTCAAGTGTCGTTATGCATCATTGGCCATAACAAATTATCTAATTTGGAATAGGGACCTGCGACCTGTACGAAGGCCGAGCGTCGGTAGCCATTCCGACTAGTAGGACTAGTACAAATAGGTCAACTGGTTGAGCAGGTGAGTGTGCTGCAGCGGCTAAGCGGTGAGTACACCGTATTCGTCAACAGGTGCTACTGGAAAGGATCACCCACTAGCGATGCCTGTGTGGACGAGGACATGTCCAAGCCAATGTTATCAGTAGCGGGGGTCGTTACTGAGAAAGCTGCCCAGAATGGGTAGTTGCACATACAGTCTGATAGGATGCCGGCGGATGCCCTGTATTTTGACCAGTATAAATATTATCCGTTGTAAAGCAT
B5: Pegivirus K (nucleic acid)
DNA: AGAATGGTGTGATCCGTCGCCGCTCCAGCGGAAAGCGGGCGGGATCTAGTGGTTAGGGTTGTTCGCGTAAATCCCACACTAGTGGTACGCTCGTATAACGTGGGAGCAGCCGGTGGGGTCGACCCCCCACCTGGCGGCTGCTGAGCACCGGACGAAGCGCGGGGGGTGAACGCTAACCCGCGGCCCGGGCTGCCAACGTTAGGCACGTCTTGGCTGGAAGACGTTAAACACAGGGCCCCCCCTCAACCCTGATCCGAGGCCAGAGACCAAGGTACGCCGCCCTTTTAAAGGCGTTACTCGTCCAATAGGATCTCTCCGGCGGGTTGTCAAACCTTGCTGGCCCTGGTGATGGTTACGGGAGGGGGTGGGGCGGGGAGTAGAAGCCCCGCCCGGCATGGGGGTACCAAGCTCGGCACGCCCAGCACGCGTGGCGTAGGGGAAAAATCCTTCGGGTGACCCCTGGTACCATAAAGTAATTAACATGAGCATGCCGCTAGGGTGTGCTTTTTCTTCCTTCCTTGGGAAGGCGGTGGCACC
modifications: Pegivirus K
B6: Sakobuvirus A FFUP1 (1x mut) (nucleic acid)
DNA: TCACGCGCTTTTCCGGTGGTCACCCACCGTTAGGGAGCGCCAGCGTTCGCGCTTCCGCTACCAGGTGACACACTCCTTTCCCCTCCCCCATTCCCGTTCCCATCCTCTGGACTGGTTTCTCCTCACGATTGACCAGCAGCTGGGAGCTGTTACCAGACGTTGGACAGTAAGTCCCGGATGCACTATAGGGCTGGTGGCTAGTGCTTGGTAAGCACTCAACGCCATACCTAATGTGTACCTCGGCTTGCCCTCCTGGTCGTGGTGACCGGCTGTTTCTCTTCCCTTGGCTCCAGACGGGCTGGTGTCCTACCACCACCGTTGCATGCAGACCTCCCCCTGCGCACTCGAACGCCCTGTCCCAGCAGGGTTAGTATGTGCTGTGCAGATCTGCATGTGACACCCCATCCACTGGTAGAGCAGGAAGTTGCCCTAGCTAACGCGGCAAGTATTACTTTCCGCTACACGTCCTTGAGATTCCTCGGACCTCTGGAACTAGGGTGACTGTGGGCTTGGGAAAACCCACCTTGGTCCTGTACTGCCTGATAGGGTCGCGGCTGGCCGACCAGTGGATGTAGCCAGTTGTTTTGGGAT
B7: Porcine pestivirus 1 (nucleic acid, listed as Pestivirus sp.)
DNA: GCAGATATCGGTGGTGGACCTGGGGGTTGGGCTCACCGTGCCCCTTCATGGGGTAGACCTCACTGCTTGATAGAGTGCCGGCGGATGCCTCAGGTAAGAGTATAAAATCCGTTGTTCACTAAC
modifications: chemistry not fully specified; the letters are possibly those of the target site
B8: Human pegivirus isolate JD2B1I (nucleic acid, listed as Pegivirus sp.)
DNA: TCAGGGTTGGTAGGTCGTAAATCCCGGTCACCTTGGTAGCCACTATAGGTGGGTCTTAAGAGAAGGTTAAGATTCCTCTTGTGCCTGCGGCGAGACCGCGCACGGTCCACAGGTGTTGGCCCTACCGGTGGGAATAAGGGCCCGACGTCAGGCTCGTCGTTAAACCGAGCCCGTCACCCACCTGGGCAAACGACGCCCACGTACGGTCCACGTCGCCCTTCA
B9: Human pegivirus isolate JD2B8C (nucleic acid, listed as Pegivirus sp.)
DNA: TGGTCACCTTGGTAGCCACTATAGGTGGGTCTTAAGAGAAGGTTAAGATTCCTCTTGTGCCTGCGGCGAGACCGCGCACGGTCCACAGGTGTTGGCCCTACCGGTGTGAATAAGGGCCCGACGTCAGGCTCGTCGTTAAACCGAGCCCATTTCCCGCCTGGGCAAACGACGCCCACGTACGGTCCACGTCGCCCTTTTAATGTCTCTCTTGACCAATAGGTTCATCCGGCGAGTTGACAAGGACCAGTGGGGGCCGGGGGTCACAGGGATGGACCCTGGGCCCTGCCCTTCCCGGCGGGGTGGGGAAAGCATGGGGCCACCCAGCTCCGCGGCGGCCTGCAGCCGGGGTAGCCCAAGAACCTTCGGGTGAGGGCGGGTGGCATTTTTCTTCCTATACCGATC

What follows are molecules tested on HEK293 cells. Details: luminescence from secreted Gluc in supernatant 24 hours after transfection of HEK293 cells; circular RNA encoding Gluc with the named IRES (UTR truncated to 675 nt).
Format: cell-based, human

First: B1
Second: B2
The Expression of the first is higher: 8.56E+04 for the first, 8.02E+04 for the second.

Compared with B3, B4 is higher in Expression: 4.72E+05 for the first, 1.10E+07 for the second.

Compared with B5, B6 is higher in Expression: 8.07E+04 for the first, 8.82E+06 for the second.

Compared with B7, B8 is higher in Expression: 9.46E+04 for the first, 6.85E+05 for the second.

In the case of B9, the Expression is reported as 5.36E+05.
